In paper PMC4760375, “A dual phosphorylation switch controls 14-3-3-dependent cell surface expression of TASK-1” (Journal of Cell Science, 2016):
Non-standard residues stand in square brackets, D forms with d. Residues, ends and D or L forms follow the SMILES beside them. No end group written: not given here. pS = N[C@@H](COP(=O)(O)O)C(=O)O

T1: 14-3-3σ (Homo sapiens, UniProt P31947)
T1 construct: Open reading frames encoding human 14-3-3 proteins were inserted into the pMAL2Cx vector at EcoRI and HindIII restriction sites; made in house
T1 sequence (P31947 1-248): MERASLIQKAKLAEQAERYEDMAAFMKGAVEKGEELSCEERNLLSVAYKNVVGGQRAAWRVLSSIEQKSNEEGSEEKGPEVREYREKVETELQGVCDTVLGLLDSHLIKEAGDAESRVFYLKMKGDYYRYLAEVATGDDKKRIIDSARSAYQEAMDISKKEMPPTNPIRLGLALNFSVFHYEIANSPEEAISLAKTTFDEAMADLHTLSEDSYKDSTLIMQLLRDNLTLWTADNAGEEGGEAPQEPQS

T2: 14-3-3η (human, UniProt Q04917 1-246)
T2 chain: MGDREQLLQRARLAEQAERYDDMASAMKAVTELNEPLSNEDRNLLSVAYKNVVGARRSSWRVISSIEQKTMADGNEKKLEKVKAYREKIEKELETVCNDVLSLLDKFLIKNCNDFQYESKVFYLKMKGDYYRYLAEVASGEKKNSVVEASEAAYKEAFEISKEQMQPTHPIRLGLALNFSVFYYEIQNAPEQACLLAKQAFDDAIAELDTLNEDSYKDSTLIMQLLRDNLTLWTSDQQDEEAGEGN

T3: 14-3-3ζ (human, UniProt P63104 1-245)
T3 chain: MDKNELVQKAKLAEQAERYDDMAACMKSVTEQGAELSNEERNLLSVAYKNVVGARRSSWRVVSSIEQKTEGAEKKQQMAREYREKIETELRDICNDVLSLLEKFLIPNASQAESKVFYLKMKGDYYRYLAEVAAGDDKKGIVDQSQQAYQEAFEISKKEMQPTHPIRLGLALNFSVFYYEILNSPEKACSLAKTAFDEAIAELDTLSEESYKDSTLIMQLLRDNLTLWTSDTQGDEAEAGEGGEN

T4: 14-3-3β (human, UniProt P31946 1-246)
T4 chain: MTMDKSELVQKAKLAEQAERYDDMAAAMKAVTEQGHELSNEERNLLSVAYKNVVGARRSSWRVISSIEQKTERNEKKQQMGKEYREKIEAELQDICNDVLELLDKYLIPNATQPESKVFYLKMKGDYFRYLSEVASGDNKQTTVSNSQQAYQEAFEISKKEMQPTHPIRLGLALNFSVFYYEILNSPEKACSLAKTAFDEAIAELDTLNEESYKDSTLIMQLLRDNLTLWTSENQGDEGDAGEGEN

T5: 14-3-3γ (human, UniProt P61981 1-247)
T5 chain: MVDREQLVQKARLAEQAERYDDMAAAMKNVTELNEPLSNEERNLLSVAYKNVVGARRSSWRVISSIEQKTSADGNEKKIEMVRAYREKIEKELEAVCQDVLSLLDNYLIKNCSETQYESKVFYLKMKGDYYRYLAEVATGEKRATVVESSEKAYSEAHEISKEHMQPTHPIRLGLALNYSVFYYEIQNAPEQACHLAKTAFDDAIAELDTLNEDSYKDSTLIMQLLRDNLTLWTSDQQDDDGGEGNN

T6: 14-3-3ε (human, UniProt P62258 1-255)
T6 chain: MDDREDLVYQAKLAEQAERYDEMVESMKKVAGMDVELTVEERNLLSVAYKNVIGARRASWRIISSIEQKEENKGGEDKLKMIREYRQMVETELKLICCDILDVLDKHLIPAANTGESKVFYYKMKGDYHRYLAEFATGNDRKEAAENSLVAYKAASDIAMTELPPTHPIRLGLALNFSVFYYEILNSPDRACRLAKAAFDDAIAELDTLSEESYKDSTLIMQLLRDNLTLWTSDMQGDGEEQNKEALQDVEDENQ

T7: 14-3-3τ (human, UniProt P27348 1-245)
T7 chain: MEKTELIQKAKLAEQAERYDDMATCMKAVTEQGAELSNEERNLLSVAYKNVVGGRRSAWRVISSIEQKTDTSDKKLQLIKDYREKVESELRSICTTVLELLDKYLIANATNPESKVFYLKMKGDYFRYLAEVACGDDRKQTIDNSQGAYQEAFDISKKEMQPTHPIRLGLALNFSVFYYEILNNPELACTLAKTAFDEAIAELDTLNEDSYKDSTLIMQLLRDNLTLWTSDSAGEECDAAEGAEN

T8: 14-3-3γ (human, UniProt P61981 1-247)
T8 construct: 14-3-3 protein gamma, human; open reading frame inserted into pMAL2Cx; also called 14-3-3 gamma
T8 sequence (looked up): T5 chain

T9: 14-3-3ζ (human, UniProt P63104 1-245)
T9 construct: 14-3-3 protein zeta, human; open reading frame inserted into pMAL2Cx; also called 14-3-3 zeta
T9 sequence (looked up): T3 chain

T10: 14-3-3η (human, UniProt Q04917 1-246)
T10 construct: 14-3-3 protein eta, human; open reading frame inserted into pMAL2Cx; also called 14-3-3 eta
T10 sequence (looked up): T2 chain

T11: 14-3-3τ (human, UniProt P27348 1-245)
T11 construct: 14-3-3 protein tau (theta), human; open reading frame inserted into pMAL2Cx; also called 14-3-3 tau
T11 sequence (looked up): T7 chain

B1: TASK-3 pS373 ΔV374 C-terminal fluorescent peptide (peptide, UniProt Q9NPC2 360-374, looked up)
peptide: SFTDHQRLMKRRK[pS]
modifications: also: fluorescein label, position not given here
notes: TASK-3 (KCNK9), human, C-terminal peptide with phosphorylated S373 but lacking the C-terminal valine V374; ends at pS373; source: synthetic peptide, bought: Peps4Life Sciences

Legend:
[1] = target: T12, 14-3-3β (Homo sapiens, UniProt P31946); assay: Fluorescence polarization titration with 14-3-3β; type: binding; conditions: versus TASK-3 pS373
T12 construct: Open reading frames encoding human 14-3-3 proteins were inserted into the pMAL2Cx vector at EcoRI and HindIII restriction sites; made in house
Description: (§1) TASK-1 or TASK-3 C-terminal fluorescent peptides (10 nM), comprising the last 15 amino acids of the respective C-termini, were titrated with concentrations of the 14-3-3 proteins ranging from 1 nM to 120 µM (Fig. 2), and the equilibrium dissociation constants of 14-3-3 proteins were calculated for TASK-1 phosphorylated at S393 (TASK-1 pS393; the conserved serine residue of the mode III 14-3-3-binding motif) and for TASK-3 phosphorylated at S373 (TASK-3 pS373) (Table 1). They ranged from 7.5±0.14 µM (mean±s.e.m.; 14-3-3β) to 49.4±2 µM (14-3-3τ) for TASK-1, whereas dissociation constants for TASK-3 ranged from 110±10 nM (14-3-3η) to 3.6±0.44 µM (14-3-3σ). The latter value matches the result determined previously by [Anders et al. (2013]) for the TASK-3 C-terminal hexapeptide using isothermal titration calorimetry. […]
(§2) Fig. 2. […] Fluorescence polarization titration of fluorescein-labeled TASK-1 pS393 (black), TASK-3 pS373 (red) and TASK-3 pS373 ΔV374 (blue) peptide (10 nM) with increasing concentrations of the indicated 14-3-3 isoform. Fluorescein was excited at 485 nm, and fluorescence polarization was monitored at 535 nm. […]
(§3) Interactions between 14-3-3 proteins and TASK-1 and TASK-3 C-terminal peptides and variants were investigated using a fluorescence polarization assay ([Moll et al., 2006]; [Muda et al., 2014]). […]

[2] = target: T13, 14-3-3ε (Homo sapiens, UniProt P62258); assay: Fluorescence polarization titration with 14-3-3ε; type: binding; conditions: versus TASK-3 pS373
T13 construct: Open reading frames encoding human 14-3-3 proteins were inserted into the pMAL2Cx vector at EcoRI and HindIII restriction sites; made in house
Description: as §1, §2, §3

[3] = target: T1, 14-3-3σ; assay: Fluorescence polarization titration with 14-3-3σ; type: binding
Description: as §1, §2, §3

[4] = system: 14-3-3 proteins (all seven isoforms); assay: Fluorescence polarization titration, statements across the 14-3-3 isoforms; type: binding, human; conditions: fluorescence polarization; 14-3-3β, 14-3-3γ, 14-3-3ζ, 14-3-3η and 14-3-3τ
Description: TASK-1 or TASK-3 C-terminal fluorescent peptides (10 nM), comprising the last 15 amino acids of the respective C-termini, were titrated with concentrations of the 14-3-3 proteins ranging from 1 nM to 120 µM (Fig. 2), and the equilibrium dissociation constants of 14-3-3 proteins were calculated for TASK-1 phosphorylated at S393 (TASK-1 pS393; the conserved serine residue of the mode III 14-3-3-binding motif) and for TASK-3 phosphorylated at S373 (TASK-3 pS373) (Table 1). They ranged from 7.5±0.14 µM (mean±s.e.m.; 14-3-3β) to 49.4±2 µM (14-3-3τ) for TASK-1, whereas dissociation constants for TASK-3 ranged from 110±10 nM (14-3-3η) to 3.6±0.44 µM (14-3-3σ). The latter value matches the result determined previously by [Anders et al. (2013]) for the TASK-3 C-terminal hexapeptide using isothermal titration calorimetry. The dissociation constants of the seven mammalian 14-3-3 isoforms for the same TASK C-terminal peptide differed up to sevenfold for TASK-1-derived peptides and up to 30-fold for TASK-3-derived peptides. […] No binding of any 14-3-3 isoform to any TASK C-terminal peptide was observed when the peptides were not phosphorylated.
Fig. 2. […] Fluorescence polarization titration of fluorescein-labeled TASK-1 pS393 (black), TASK-3 pS373 (red) and TASK-3 pS373 ΔV374 (blue) peptide (10 nM) with increasing concentrations of the indicated 14-3-3 isoform. Fluorescein was excited at 485 nm, and fluorescence polarization was monitored at 535 nm. A monophasic fit was used to fit the data (Goodness-of-fit: R^2 from 0.76 to 0.98). No binding was detectable for the unphosphorylated TASK C-terminal peptides. The assay was repeated at least six times for each data point with two batches of independently purified 14-3-3 proteins. Error bars depict s.e.m. (A) 14-3-3β, (B) 14-3-3γ, (C) 14-3-3ε, (D) 14-3-3ζ, (E) 14-3-3η and (F) 14-3-3τ.
[Mant et al. (2011)] report that both serine residues present in the TASK-1 C-terminus can be phosphorylated in vitro by the recombinant catalytic subunit of PKA. […] Next, using fluorescence polarization titration, we determined how phosphorylation of S392 affects the affinity of all seven mammalian 14-3-3 proteins for the TASK-1 C-terminus – either when phosphorylated alone or in combination with phosphorylation of S393 (Table S1). […] Because all Kd values determined for TASK-1 pS392 and the doubly phosphorylated protein (at S392 and S393) were substantially higher than those measured for TASK-1 pS393 (Table S1), we conclude that phosphorylation of S392 cannot substitute for phosphorylated S393 in creating a high-affinity 14-3-3 binding site. On the contrary, our results are consistent with an inhibitory role for phosphorylation of S392 with respect to 14-3-3-mediated binding.
Interactions between 14-3-3 proteins and TASK-1 and TASK-3 C-terminal peptides and variants were investigated using a fluorescence polarization assay ([Moll et al., 2006]; [Muda et al., 2014]). Fluorescein-labeled peptides were purchased from Peps4Life Sciences (Heidelberg, Germany). All measurements were performed in buffer containing 20 mM MOPS, 150 mM NaCl, 0.005% (v/v) CHAPS pH 7.0, using a Fusion™ α-FP microtiter plate reader at room temperature in a 384-well microtiter plater (Optiplate 384, black; Packard, Meriden, CT). 14-3-3 proteins were serially diluted from 100 µM to 1 nM and incubated with 10 nM of fluorescently labeled peptide. The fluorescence polarization signal was detected for 2 s at an excitation wavelength of 485 nm with an emission fluorescence polarization filter wavelength of 535 nm and a photomultiplier voltage of 1100. Data were analyzed with GraphPad Prism 6.0 (GraphPad Software, San Diego, CA) by plotting the obtained fluorescence polarization signal in millipolarization units (mPol) against the logarithm of the 14-3-3 protein concentration. The data were then fitted using a monophasic fit.

[5] = target: T2, 14-3-3η; assay: FP
[6] = target: T3, 14-3-3ζ; assay: FP
[7] = target: T4, 14-3-3β; assay: FP
[8] = target: T5, 14-3-3γ; assay: FP
[9] = target: T6, 14-3-3ε; assay: FP
[10] = target: T7, 14-3-3τ; assay: FP
[11] = target: T8, 14-3-3γ; assay: fluorescence polarisation; 10 nM fluorescein-labelled peptide titrated with 14-3-3 protein (1 nM to 120 µM in the results, 100 µM to 1 nM in the methods); 20 mM MOPS, 150 mM NaCl, 0.005% (v/v) CHAPS pH 7.0; room temperature; monophasic fit; conditions: both partners purified
[12] = target: T9, 14-3-3ζ; assay: as above; conditions: both partners purified
[13] = target: T10, 14-3-3η; assay: as above; conditions: both partners purified
[14] = target: T11, 14-3-3τ; assay: as above; conditions: both partners purified

Row | Molecule | fold reduction of affinity by the C-terminal deletion, 14-3-3β [1] | fold reduction of affinity by the C-terminal deletion, 14-3-3 epsilon [2] [fold] | Kd, fluorescence polarization, 14-3-3σ ([3]; 10 nM fluorescein-labeled peptide titrated with 14-3-3 (1 nM to 120 µM), 20 mM MOPS, 150 mM NaCl, 0.005% CHAPS pH 7.0, room temperature, monophasic fit, ±s.e.m., n.b. = no binding detectable) | interaction with 14-3-3σ (in words) ([3]; fluorescence polarization titration) | affinity range (in words) [4] | Kd [5] [µM] | Kd [6] [µM] | Kd [7] [µM] | Kd [8] [µM] | Kd [9] [µM] | Kd [10] [µM] | binding result [11] | binding result [12] | binding result [13] | binding result [14]
1 | CSCC[C@H](NC(=O)[C@H](CC(C)C)NC(=O)[C@H](CCCNC(=N)N)NC(=O)[C@H](CCC(N)=O)NC(=O)[C@H](Cc1c[nH]cn1)NC(=O)[C@H](CC(=O)O)NC(=O)[C@@H](NC(=O)[C@H](Cc1ccccc1)NC(=O)[C@H](CO)NC(=O)[C@@H](N)CS)[C@@H](C)O)C(=O)N[C@@H](CCCCN)C(=O)N[C@@H](CCCNC(=N)N)C(=O)N[C@@H](CCCNC(=N)N)C(=O)N[C@@H](CCCCN)C(=O)N[C@@H](COP(=O)(O)O)C(=O)O [TASK-3 pS373 ΔV374] (H-CSFTDHQRLMKRRK[pS]-OH; N-terminus assumed) | three | 23 | n.b.±n.b. | could no longer be measured | low micromolar range |  |  |  |  |  |  |  |  |  | 
2 | B1 |  |  |  |  |  | 1.6 | 3.3 | 1.2 | 1.1 | 18 | 2.4 | binds | binds | binds | binds
